Data published in patent US20210300999A1.

B1: COV2-2165 (antibody, V domains shown)
VH: EVQLVESGGGLVQPGGSLRLSCAASGLTVRSNYMTWVRQTPGKGLEWVSVIYSGGSTFYADSVKGRFTISRDNSKNTVYLQMNSLRAEDTAVYYCARDLVTYGLDVWGQGTTVTVSS
VL: DIQLTQSPSFLSASVGDRVTITCRASQGISNYLAWYQQKPGTAPNLLIYAASTLQSGVPSRFSGSGSGTEFTLTISSLQPEDFATYYCQLLNSHPLTFGQGTRLEIK
B2: COV2-2096 (antibody, V domains shown)
VH: QVQLVQSGAEVKKPGASVKVSCKASGYTFGSFDINWVRQATGQGLEWMGRMNSNSGNTAYAQKFQGRVTMTRDTSTNTAYMELSSLRSEDTAMYYCARMRSGWPTHGRPDDFWGRGTLVTVSS
VL: QSVLTQAPSASGTPGQRVTISCSGSNSNIGSYTINWYQQLPGTAPKLLIYGNDQRTSGVPDRFSGSKFGTSASLAISGLQSEDENNYYCAVWDDSLNGLVFGGGTKLTVL
B3: COV2-2952 (antibody, V domains shown)
VH: B1 VH
VL: B1 VL
B4: COV2-2391 (antibody, V domains shown)
VH: B2 VH
VL: B2 VL
B5: COV2-2130 (antibody, V domains shown)
VH: EVQLVESGGGLVKPGGSLRLSCAASGFTFRDVWMSWVRQAPGKGLEWVGRIKSKIDGGTTDYAAPVKGRFTISRDDSKNTLYLQMNSLKTEDTAVYYCTTAGSYYYDTVGPGLPEGKFDYWGQGTLVTVSS
VL: not shown

molecular target: SARS-CoV-2 S receptor-binding domain (SRBD), residues 319-541 (SARS-CoV-2), P0DTC2; experiment: ELISA on coated antigen; conditions: remark: other sources report otherwise

For B1, which EC50 is on record?
Its EC50 is 0.6 ng/mL.

For B2, which EC50 is on record?
The EC50 was 1 ng/mL.

molecular target: SARS-CoV Spike trimer (Table A) (SARS-CoV), P59594; experiment: ELISA, purified IgG; conditions: remark: other sources report otherwise

B3 was tested. Which ELISA OD 450 nm did it give?
The ELISA OD 450 nm was 0.15 OD 450 nm.

How did the ELISA OD 450 nm turn out when B1 was run?
The ELISA OD 450 nm was 0.17 OD 450 nm.

For B4, which ELISA OD 450 nm is on record?
Its ELISA OD 450 nm is 0.1 OD 450 nm.

For B2, which ELISA OD 450 nm is on record?
Its ELISA OD 450 nm is 0.11 OD 450 nm.

B5 was tested. Which ELISA OD 450 nm did it give?
Its ELISA OD 450 nm is 0.1 OD 450 nm.

molecular target: SARS-CoV-2 RBD (Table A) (SARS-CoV-2), P0DTC2; experiment: ELISA, purified IgG; conditions: remark: other sources report otherwise

For B3, which ELISA OD 450 nm is on record?
Its ELISA OD 450 nm is 3.55 OD 450 nm.

How did the ELISA OD 450 nm turn out when B1 was run?
The ELISA OD 450 nm was 4.2 OD 450 nm.

How did the ELISA OD 450 nm turn out when B4 was run?
The ELISA OD 450 nm was 3.65 OD 450 nm.

Which ELISA OD 450 nm does the source give for B2 here?
Its ELISA OD 450 nm is 4.3 OD 450 nm.
